The text below walks through data of US20170044545.

This data set concerns the target Autotaxin (ENPP2, NPP2) (Homo sapiens) (UniProt Q13822). Nature of the data set: inhibition. The conditions noted are these: 2'-F pyrimidines, 2'-OH purines.

“CGGAUACGUCUCACUUCGUCNNNNNNNNNNNNNNNNNNNNNNNNNNNNNNCAGAGCGUUUAGAGUGCGGUCCC [30N RNA pool]”: the half-maximal inhibitory concentration (IC50) (in general, the point on the concentration scale where inhibition reaches its midpoint) is > 1000 nM. The same measure for “GUACGAAGACGCAUCUCACNNNNNNNNNNNNNNNNNNNNNNNNNNNNNNNNNNNNNNNNGUUCCAUGUCCUGUUGCCACCC [40N RNA pool]”: > 1000 nM.
